Assay results published in patent US12616648B2, “Cosmetic composition” (GIVAUDAN SA, priority 2018, dated 2026).

System: Normal Human Keratinocytes (NHEKs)
Experiment: NHEK scratch assay (wound healing)
Format: cell-based
Details: HB-EGF 1 ng/ml (positive control), overnight pre-incubation, 8 h after scratch
Procedure: Normal Human Keratinocytes (NHEKs) were seeded at 200′000 cells per well pre-coated with Type I collagen in 12-wells culture plates in the presence of keratinocyte growth medium (KGM, Lonza) supplemented with growth factors such as hydrocortisone, transferrin, epinephrine, bovine pituitary extract (BPE), recombinant human epidermal growth factor (rhEGF) and insulin. At confluence, cells were pre-incubated with the Patchouli stem extract of Example 1 at a concentration of 0.5% (v/v) or heparin-binding epidermal growth factor (HB-EGF) at 1 ng/ml (positive control) overnight in keratinocyte basal medium without supplement. After this pre-conditioning phase, the cell monolayer sticking to the bottom of the well was scratched with a P200 sterile cone, followed by two washes with phosphate buffered saline (PBS). The NHEK were then again stimulated with Patchouli extract at 0.5% or HB-EGF at 1 ng/ml for 8 h in basal medium.
The wound healing process was analyzed by pictures recording at T0 and T8h using inverting optical microscope (Zeiss). After image analysis, the percentage of scratch closing was determined relative to untreated condition.

B1: HB-EGF: heparin-binding epidermal growth factor, positive control in the scratch assay (protein, UniProt Q99075 63-148, looked up)
Heparin-binding EGF-like …: DLQEADLDLLRVTLSSKPQALATPNKEEHGKRKKKGKGLGKKRDPCLRKYKDFCIHGECKYVKELRAPSCICHPGYHGERCHGLSL
B1 was tested, and the “wound healing (scratch closing relative to untreated condition)” value was “about +60%”.
